± gives the uncertainty stated by the source.
Test: protein stability index of a GFP-peptide fusion (yeast GPS) (PSI 1-4); higher = more stable; sorted into four equal gates, so the index is relative within each strain
Outline: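 Mid-log yeast cultures in leucine-free medium, carrying a pooled plasmid library, were sorted into four equal gates by their GFP/Cherry fluorescence ratio. Each plasmid expressed Cherry along with GFP fused upstream of a tiled 17-residue yeast protein peptide. Plasmids recovered from each gate were PCR-amplified and Illumina-sequenced, with reads assigned to strains by barcodes. The protein stability index was obtained by summing each gate's read frequency weighted by its gate number.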

Row | Sequence | protein stability index (doa10∆) | protein stability index (pdr5∆) | protein stability index (san1∆) | protein stability index (ubr1∆)
1 | QNAAANAEAKGLDATKL [RPL17A] | 2.8 ± 0.28 | 3.39 ± 0.24 | 1.93 ± 0.25 | 
2 | SAGLDSAQQNLASSFVN [RPN1] |  | 2.96 ± 0.16 | 2.79 ± 0.17 | 3.2 ± 0.2
3 | GSFKYITARSAFVEFGA [SWP82] | 2.62 ± 0.11 | 3.11 ± 0.074 | 2.96 ± 0.069 | 2.56 ± 0.056
4 | GDVKNMEDVKIQKEEEP [SWI3] | 3.45 ± 0.14 | 3.4 ± 0.2 | 3.43 ± 0.085 | 3.14 ± 0.12
5 | SPNFKNYLKYLEYWCNP [SOH1] | 2.32 ± 0.055 | 2.34 ± 0.056 | 1.88 ± 0.053 | 2.71 ± 0.06
6 | IWDSQKFFIMIVKGNII [POP4] | 1.37 ± 0.069 | 1.44 ± 0.096 | 1.38 ± 0.15 | 1.32 ± 0.083
7 | TRNPDAPKGSTDPKELY [RPC40] | 3.11 ± 0.23 | 3.63 ± 0.29 |  | 3.48 ± 0.16
8 | LREVVELPLLSPERFAT [RPT1] | 2.13 ± 0.084 | 2.54 ± 0.07 | 2.47 ± 0.1 | 2.33 ± 0.11
9 | KDYEAKTKAMSLSIEEN [POP1] | 2.57 ± 0.13 | 2.55 ± 0.089 | 2.28 ± 0.082 | 2.95 ± 0.083
10 | MNFNTPQQNKTPFSFGT [YJL041W/NSP1] | 3.15 ± 0.057 | 3 ± 0.051 | 2.92 ± 0.061 | 2.95 ± 0.05
11 | GQRPDRATTYEKLTMVF [SIN4] | 1.27 ± 0.087 | 1.48 ± 0.067 | 1.53 ± 0.19 | 1.14 ± 0.11
12 | EEIFFKSVRILKNKAEY [RPC40] | 3.2 ± 0.074 | 3.2 ± 0.085 | 3.06 ± 0.062 | 3.16 ± 0.047
13 | EILILINDPTNKEYTLV [SIN4] | 1.77 ± 0.072 | 2.05 ± 0.067 | 2.06 ± 0.1 | 2.23 ± 0.14
14 | EEIEPKLEKLRNEKRMF [SMC2] | 2.89 ± 0.11 | 3.21 ± 0.074 | 3.02 ± 0.1 | 3.21 ± 0.079
15 | DVPGRELKYELIAEESE [RPB2] | 3.07 ± 0.19 | 3.01 ± 0.12 |  | 
16 | PSTNKKLSISNAASQQP [GAL11] | 2.48 ± 0.084 | 2.8 ± 0.066 | 2.56 ± 0.072 | 2.74 ± 0.075
17 | LKGLLQELKADSPFSLI [SRP72] | 1.43 ± 0.059 | 1.26 ± 0.059 | 2.42 ± 0.092 | 1.45 ± 0.046
18 | EFLINEGTPINNVYFAA [RPN14] | 2.33 ± 0.07 | 2.17 ± 0.052 | 1.91 ± 0.087 | 1.94 ± 0.047
19 | DTKSVVGLVMFSQFWYW [RPN2] | 2.35 ± 0.06 | 2.3 ± 0.062 | 2.61 ± 0.097 | 2.52 ± 0.04
20 | VTPEDVMTISSLEQRTL [RPC82] | 3.2 ± 0.084 | 3.1 ± 0.076 | 3.06 ± 0.061 | 3.25 ± 0.073
21 | SSKPAFNLISNAGTEKE [YLR335W/NUP2] | 3.13 ± 0.094 | 2.95 ± 0.098 | 3.13 ± 0.065 | 3.07 ± 0.061
22 | FTQPALTLMEKAAFEDL [FAS1] | 2.74 ± 0.1 | 2.33 ± 0.078 | 2.77 ± 0.091 | 2.9 ± 0.07
23 | VECTISILRKSSPEEPF [SNF12] | 1.27 ± 0.061 | 1.46 ± 0.064 | 2.32 ± 0.066 | 1.14 ± 0.051
24 | EEIKTVDPASAPNHSPE [RRP6] | 3.01 ± 0.096 | 2.96 ± 0.072 | 3.27 ± 0.068 | 3.19 ± 0.056
25 | EVRAISVAKIRFPETMD [RPO21] | 3.08 ± 0.1 | 2.87 ± 0.087 | 2.73 ± 0.079 | 3.28 ± 0.044
26 | MSTFIFPGDSFPVDPTT [RRP40] | 2.17 ± 0.11 | 2.06 ± 0.092 | 2.35 ± 0.068 | 2.35 ± 0.074

Row | Sequence | protein stability index (doa10∆) | protein stability index (pdr5∆) | protein stability index (san1∆) | protein stability index (ubr1∆)
27 | ILDFGPGGASGLGVLTH [FAS1] | 2.82 ± 0.082 | 2.74 ± 0.092 |  | 2.84 ± 0.2
28 | INLNVDDDILIIRPILG [SRB4] | 3.42 ± 0.15 | 3.07 ± 0.1 | 3.21 ± 0.059 | 3.21 ± 0.057
29 | VKDEAFDDLLKPVYKGK [RET1] | 3.35 ± 0.16 | 3.32 ± 0.15 | 3.3 ± 0.11 | 3.12 ± 0.17
30 | NPSYPGMMSTTGTARLN [YJL039C/NUP192] | 2.97 ± 0.097 | 3.1 ± 0.053 | 3.13 ± 0.077 | 3.24 ± 0.076
31 | YCHEKELTIIKNPRVTK [CSN9] | 2.55 ± 0.098 | 2.29 ± 0.18 | 2.14 ± 0.2 | 2.13 ± 0.13
32 | QIAAQSPVELSRMFEEV [SMC1] | 3.19 ± 0.14 | 3.2 ± 0.079 | 3.14 ± 0.058 | 3.27 ± 0.075
33 | SGTPITQTESKKEENET [SNF2] | 2.77 ± 0.052 | 2.59 ± 0.045 | 2.94 ± 0.046 | 2.82 ± 0.036
34 | SSKKVFSSNLSYANHLE [YOR098C/NUP1] | 2.31 ± 0.067 | 2.31 ± 0.064 | 2.1 ± 0.078 | 2.48 ± 0.047
35 | EGIEIYDRKKLPRKEVD [RPC11] | 3.14 ± 0.14 | 2.98 ± 0.097 | 1.91 ± 0.14 | 3.3 ± 0.17
36 | VQHDQILVMETSEEQTK [SWP82] | 2.99 ± 0.092 | 2.91 ± 0.11 | 2.94 ± 0.047 | 2.85 ± 0.076
37 | VLSDDAKKLSSFDFGNE [ARP9] | 2.93 ± 0.055 | 3.06 ± 0.09 | 2.86 ± 0.062 | 3.06 ± 0.056
38 | PIKNRTSKSFSKLLYDD [SIN4] | 2.63 ± 0.07 | 2.73 ± 0.045 | 2.22 ± 0.086 | 2.64 ± 0.048
39 | NSTLKKVESQETLNDTI [YCS4] | 2.12 ± 0.1 | 2.43 ± 0.092 | 2.37 ± 0.13 | 2.1 ± 0.11
40 | SQLDLFLRTMKLTSEET [GRR1] | 2.77 ± 0.055 | 2.7 ± 0.052 | 3 ± 0.06 | 3.09 ± 0.043
41 | SKLGKNLQTVHFGHCFN [GRR1] | 1.42 ± 0.092 |  | 2.68 ± 0.11 | 2.25 ± 0.11
42 | DENPDLLGYTGIPTDKG [PRE8] | 1.99 ± 0.05 | 2.48 ± 0.063 | 2.71 ± 0.05 | 2.28 ± 0.044
43 | VPRTADRSASRAVFLFR [RPC82] |  | 3.53 ± 0.2 |  | 3.04 ± 0.17
44 | ISPLMKSQYNMVLRNVM [SRB8] | 2.32 ± 0.068 | 2.12 ± 0.12 | 2.79 ± 0.1 | 2.84 ± 0.11
45 | GTAIGAIGAQSIGEPGT [RPO31] | 3.12 ± 0.11 | 3.13 ± 0.092 | 2.61 ± 0.14 | 3.15 ± 0.059
46 | IFKDLVTVFLFMLILAL [COB] | 1.45 ± 0.04 | 1.19 ± 0.033 | 1.12 ± 0.067 | 1.17 ± 0.025
47 | VFYRMQQLRRALPDVVV [RPO31] | 1.83 ± 0.038 | 1.93 ± 0.035 | 1.82 ± 0.074 | 1.99 ± 0.047
48 | TLLNFVSNNVLRRLEIL [ECM29] | 1.63 ± 0.1 | 1.92 ± 0.29 | 2.28 ± 0.19 | 2.48 ± 0.12
49 | VRLGEEDMIRSVFDATS [RPN1] |  |  | 3.12 ± 0.23 | 
50 | TTAVEDEDDDLDEDDVN [RPB4] | 3.5 ± 0.11 | 3.27 ± 0.1 | 3.55 ± 0.15 | 3.3 ± 0.093
51 | IHEIDERLAKVNEMNDQ [NNF1] | 1.37 ± 0.089 | 2.51 ± 0.14 | 1.63 ± 0.12 | 1.96 ± 0.061
52 | QLIPIILRQRGPGFKFV [SRB4] | 2.55 ± 0.11 | 1.65 ± 0.073 | 1.47 ± 0.19 | 1.69 ± 0.078
